# B1: GRF4, Split-LUC fusion [Arabidopsis thaliana] / PI-PLC2, Split-LUC fusion [Arabidopsis thaliana] (parent)
# chain 1: MAAPPASSSAREEFVYLAKLAEQAERYEEMVEFMEKVAEAVDKDELTVEERNLLSVAYKNVIGARRASWRIISSIEQKEESRGNDDHVTTIRDYRSKIESELSKICDGILKLLDTRLVPASANGDSKVFYLKMKGDYHRYLAEFKTGQERKDAAEHTLTAYKAAQDIANAELAPTHPIRLGLALNFSVFYYEILNSPDRACNLAKQAFDEAIAELDTLGEESYKDSTLIMQLLRDNLTLWTSDMQDESPEEIKEAAAPKPAEEQKEI
# chain 2: MSKQTYKVCFCFRRRFRYTASEAPREIKTIFEKYSENGVMTVDHLHRFLIDVQKQDKATREDAQSIINSASSLLHRNGLHLDAFFKYLFGDNNPPLALHKVHHDMDAPISHYFIFTGHNSYLTGNQLSSDCSEVPIIDALKKGVRVIELDIWPNSNKDDIDVLHGMTLTTPVGLIKCLKAIRAHAFDVSDYPVVVTLEDHLTPDLQSKVAEMVTEIFGEILFTPPVGESLKEFPSPNSLKRRIIISTKPPKEYKEGKDVEVVQKGKDLGDEEVWGREVPSFIQRNKSEAKDDLDGNDDDDDDDDEDKSKINAPPQYKHLIAIHAGKPKGGITECLKVDPDKVRRLSLSEEQLEKAAEKYAKQIVRFTQHNLLRIYPKGTRVTSSNYNPLVGWSHGAQMVAFNMQGYGRSLWLMQGMFRANGGCGYIKKPDLLLKSGSDSDIFDPKATLPVKTTLRVTVYMGEGWYFDFRHTHFDQYSPPDFYTRVGIAGVPGDTVMKKTKTLEDNWIPAWDEVFEFPLTVPELALLRLEVHEYDMSEKDDFGGQTCLPVWELSEGIRAFPLHSRKGEKYKSVKLLVKVEFV
# Variants of: B1
# Assay: Split-LUC
# Conditions: with PI-PLC2, Split-LUC fusion [Arabidopsis thaliana]; P4: nluc-GRF4 S242D, cluc-PI-PLC2, 35S::IPCK1-flag co-infiltrated (1:1:2); Total cps 150882, Areas 56.84; parent value is P1, which the printed layout grid …; parent: 1.67e+03
row,Variant,response (cps (average))
1,chain 1 MAAPPASSSAREEFVYLAKLAEQAERYEEMVEFMEKVAEAVDKDELTVEERNLLSVAYKNVIGARRASWRIISSIEQKEESRGNDDHVTTIRDYRSKIESELSKICDGILKLLDTRLVPASANGDSKVFYLKMKGDYHRYLAEFKTGQERKDAAEHTLTAYKAAQDIANAELAPTHPIRLGLALNFSVFYYEILNSPDRACNLAKQAFDEAIAELDTLGEESYKDSTLIMQLLRDNLTLWTDDMQDESPEEIKEAAAPKPAEEQKEI [chain 1 S242D],2650

# Same assay, conditions: with PI-PLC2, Split-LUC fusion [Arabidopsis thaliana]; P3: nluc-GRF4 S242A, cluc-PI-PLC2, 35S::IPCK1-flag co-infiltrated (1:1:2); Total cps 91336, Areas 49.23; parent value is P1, which the printed layout grid …; parent: 1.67e+03
row,Variant,response (cps (average))
1,chain 1 MAAPPASSSAREEFVYLAKLAEQAERYEEMVEFMEKVAEAVDKDELTVEERNLLSVAYKNVIGARRASWRIISSIEQKEESRGNDDHVTTIRDYRSKIESELSKICDGILKLLDTRLVPASANGDSKVFYLKMKGDYHRYLAEFKTGQERKDAAEHTLTAYKAAQDIANAELAPTHPIRLGLALNFSVFYYEILNSPDRACNLAKQAFDEAIAELDTLGEESYKDSTLIMQLLRDNLTLWTADMQDESPEEIKEAAAPKPAEEQKEI [chain 1 S242A],1860
